B1: RNase: RNAse A enzyme used to pre-treat EV (protein, UniProt P61823 27-150, looked up)
Ribonuclease pancreatic: KETAAAKFERQHMDSSTSAASSSNYCNQMMKSRNLTKDRCKPVNTFVHESLADVQAVCSQKNVACKNGQTNCYQSYSTMSITDCRETGSSKYPNCAYKTTQANKHIIVACEGNPYVPVHFDASV
B2: proteinase K: protease used with RNAse A to pre-treat EV (protein, UniProt P06873 106-384, looked up)
Proteinase K: AAQTNAPWGLARISSTSPGTSTYYYDESAGQGSCVYVIDTGIEASHPEFEGRAQMVKTYYYSSRDGNGHGTHCAGTVGSRTYGVAKKTQLFGVKVLDDNGSGQYSTIIAGMDFVASDKNNRNCPKGVVASLSLGGGYSSSVNSAAARLQSSGVMVAVAAGNNNADARNYSPASEPSVCTVGASDRYDRRSSFSNYGSVLDIFGPGTSILSTWIGGSTRSISGTSMATPHVAGLAAYLMTLGKTTAASACRYIADTANKGDLSNIPFGTVNLLAYNNYQA
B3: heparinase: heparinase III (Sigma), disrupts heparin sulfate side chains on beta-glycan (protein, UniProt Q59289 25-659, looked up)
Heparin-sulfate lyase: QSSSITRKDFDHINLEYSGLEKVNKAVAAGNYDDAAKALLAYYREKSKAREPDFSNAEKPADIRQPIDKVTREMADKALVHQFQPHKGYGYFDYGKDINWQMWPVKDNEVRWQLHRVKWWQAMALVYHATGDEKYAREWVYQYSDWARKNPLGLSQDNDKFVWRPLEVSDRVQSLPPTFSLFVNSPAFTPAFLMEFLNSYHQQADYLSTHYAEQGNHRLFEAQRNLFAGVSFPEFKDSPRWRQTGISVLNTEIKKQVYADGMQFELSPIYHVAAIDIFLKAYGSAKRVNLEKEFPQSYVQTVENMIMALISISLPDYNTPMFGDSWITDKNFRMAQFASWARVFPANQAIKYFATDGKQGKAPNFLSKALSNAGFYTFRSGWDKNATVMVLKASPPGEFHAQPDNGTFELFIKGRNFTPDAGVFVYSGDEAIMKLRNWYRQTRIHSTLTLDNQNMVITKARQNKWETGNNLDVLTYTNPSYPNLDHQRSVLFINKKYFLVIDRAIGEATGNLGVHWQLKEDSNPVFDKTKNRVYTTYRDGNNLMIQSLNADRTSLNEEEGKVSYVYNKELKRPAFVFEKPKKNAGTQNFVSIVYPYDGQKAPEISIRENKGNDFEKGKLNLTLTINGKQQLVLVP
B4: heat-inactivated heparinase: heat-inactivated heparinase (control) (protein, UniProt Q59289 25-659, looked up)
Heparin-sulfate lyase: B3 Heparin-sulfate lyase
modifications: heat-inactivated
B5: TGF-β3: recombinant human TGF-β3 (Sigma) (protein, UniProt P10600 301-412, looked up)
Transforming growth factor …: ALDTNYCFRNLEENCCVRPLYIDFRQDLGWKWVHEPKGYYANFCSGPCPYLRSADTTHSTVLGLYNTLNPEASASPCCVPQDLEPLTILYYVGRTPKVEQLSNMVVKSCKCS

System: CD4+ T cells (ConA-stimulated PBMC)
Assay: ConA mitogen-induced CD4+ T cell proliferation in CFSE-stained PBMC (PBMC responder/suppression assay)
Type: cell-based, canine
Conditions: for effect of pre-treating WJ-MSC EV on their suppression of CD4+ T cell division: 0.1% Triton-X, 2 μg/ml RNAse A, proteinase K 30 min 37°C, heparinase 0.006 U/ml 3 hours, 10^4 EV:1 PBMC
Protocol: Serum-free culture medium from canine Wharton's Jelly mesenchymal stem cells (WJ-MSC: CD44^+, CD90^+, CD34^−, CD45^−, MHCII^−, n=6 cell lines) was collected after 48 hours, and extracellular vesicles (WJ-EV) were isolated by differential centrifugation. WJ-EV output was assessed using single vesicle nanoparticle tracking analysis (NTA). CFSE-stained peripheral blood mononuclear cells (PBMC) were collected from healthy dogs (n=8), exposed to Concanavalin A mitogen (ConA; 5 μg/ml) and co-incubated with WJ-MSC (1:10) across transwell membrane (0.4 μm pore size) or with WJ-MSC EV (1:10^4)±10 μM SB431542 (TGFβR1 inhibitor) or TGF-β neutralizing (e.g., inhibiting) antibody (Ab) for 72 hours. Analysis of CFSE fluorescence using FlowJo (v7.6.5) yielded % CD4^+ cells that had undergone division (T-cell proliferation).
PBMC responder assay: Twelve healthy adult purpose-bread Beagle dogs (5 neutered males, 7 spayed females) housed at the Laboratory Animal Medicine department at the Cummings School of Veterinary Medicine at Tufts University served as blood donors under an approved protocol. […] or WJ-MSC were tested in triplicate against a minimum of 3 different PBMC donor cell samples (see Figure legends for ‘n’ of each experiment). Healthy status was confirmed by clinical examination, and hematological and serum biochemical testing within six months of blood sampling. All dogs were fasted for 12 hours prior to peripheral blood sampling. Peripheral blood samples were taken via jugular venipuncture using a 21 gauge needle, and blood was immediately placed into an EDTA collection tube and rotated 1-2 times gently. Blood was diluted 1:1 with cold PBS or centrifuged (1300×g, 10 min) prior to dilution 1:2 in PBS, followed by density-gradient centrifugation using Ficoll-Paque (density 1.077; GE Healthcare Life Sciences) to harvest peripheral blood mononuclear cells (PBMC). PBMC were washed in RPMI (Life Technologies) supplemented with 10% heat-inactivated fetal bovine serum (Gibco), […] (Life Technologies), 100 μM β-mercaptoethanol (Sigma-Aldrich), 10,000 U/ml penicillin-streptomycin, 2 mM L-glutamine (Life Technologies), and 2.2 mg/mL of sodium bicarbonate (Thermo Fisher Scientific) (complete RPMI, ‘cRPMI’). For mitogen induced lymphocytes proliferation assays, PBMC were suspended in 1 ml cRPMI and 0.5 μof 10 mM carboxyfluorescein succinimidyl ester (CFSE, Thermo Fisher Scientific) and were incubated (10 min). For initial characterization of WJ-MSC effects on responder PBMC, PBMC were plated on a 24-well plate on the top of a 0.4 μm Transwell (Corning) across from the WJ-MSC in a 10:1 ratio (PBMC:MSC) in a total volume of 1 ml medium (n=3 technical replicates/sample). All plates were incubated at 37° C. in the dark for 72 hours prior to analysis.
Dose-responses of TV MSC-EV: To investigate the dose response of PBMC to WJ-MSC EV, the […] were plated on a 96-well plate in cRPMI with addition of 1 mM ATP, with or without 5 μg/ml Concanavalin A (ConA, Sigma-Aldrich). Responder PBMC were incubated with WJ-MSC EV in a total volume of 200 μL medium (n=3 technical replicates per sample). PBMC were incubated with WJ-MSC EV in a 1:10^2, 1:10^3, or 1:10^4 (PBMC:EV) ratio. After 72 hours of incubation, the PBMC were collected and surface stained for CD4 (rat anti-canine CD4-Alexa 647, clone YKIX302.9, AbD Serotec). Cells were stained for 30 minutes, washed twice with cold PBS and 5% FBS, and resuspended in 200 μl PBS and 5% FBS with 5 μl 7AAD (Becton Dickinson) for analysis by flow cytometry (Accuri C6, Becton Dickinson). The effect of WJ-MSC or WJ-MSC EV on CD4-positive (CD4^+) T cell (i.e., T helper cell) proliferation (percentage of cells proliferating, number of divisions for proliferating cells) was measured by evaluating CFSE fluorescence utilizing the FlowJo® proliferation platform (FlowJo, V10, Ashland, Oreg.) after gating on the viable CD4^+ lymphocyte population. […]

Molecule | effect of pre-treating WJ-MSC EV on their suppression of CD4+ T cell division | suppression of mitogen driven T cell division by exogenous TGF-β (5 ng/ml added to ConA stimulated PBMC) | suppression of mitogen driven T cell division by exogenous TGF-β (10 ng/ml added to ConA stimulated PBMC) | suppression of mitogen driven T cell division by exogenous TGF-β (50 ng/ml added to ConA stimulated PBMC)
B1 | reduced |  |  | 
B2 | reduced |  |  | 
B3 | reduced EV suppression |  |  | 
B4 | absent |  |  | 
B5 |  | not | suppressed | suppressed
